Measurements taken from patent US20020103133.

What was measured:
acetyl-P-L-G-Hof-Y-L-Dox = biological target: T1, acetyl-P-L-G-Hof-Y-L-Dox
T1 chain: XLGXYL

acetyl-P-L-G-L-Y-L-Dox = biological target: T2, acetyl-P-L-G-L-Y-L-Dox
T2 chain: XLGLYL

acetyl-P-L-G-L-A-L-Dox = biological target: T3, acetyl-P-L-G-L-A-L-Dox
T3 chain: XLGLAL

[1] = biological target: T4, acetyl-P-L-G-Hof-Orn-L-Dox
T4 chain: XLGXXL

acetyl-G-P-L-G-L-Y-Dox = biological target: T5, acetyl-G-P-L-G-L-Y-Dox
T5 chain: XPLGLY

acetyl-P-L-G-L-L-Dox = biological target: T6, acetyl-P-L-G-L-L-Dox
T6 chain: XLGLL

acetyl-G-P-L-G-L-L-Dox = biological target: T7, acetyl-G-P-L-G-L-L-Dox
T7 chain: XPLGLL

acetyl-G-P-L-G-L-A-L-Dox = biological target: T8, acetyl-G-P-L-G-L-A-L-Dox
T8 chain: XPLGLAL

acetyl-P-L-G-L-L-A-L-Dox = biological target: T9, acetyl-P-L-G-L-L-A-L-Dox
T9 chain: XLGLLAL

[2] = biological target: T10, succinyl-P-L-G-Hof-Y-L-Dox
T10 chain: XLGXYL

acetyl-P-L-G-L-Y-A-L-Dox = biological target: T11, acetyl-P-L-G-L-Y-A-L-Dox
T11 chain: XLGLYAL

acetyl-P-L-G-L-L-S-L-Dox = biological target: T12, acetyl-P-L-G-L-L-S-L-Dox
T12 chain: XLGLLSL

acetyl-P-L-G-L-A-A-L-Dox = biological target: T13, acetyl-P-L-G-L-A-A-L-Dox
T13 chain: XLGLAAL

B1: Neprilysin (protein)
chain: YDDGICKSSDCIKSAARLIQNMDATTEPCTDFFKYACGGWLKRNVIPETSSRYGNFDILRDELEVVLKDVLQEPKTEDIVAVQKAKALYRSCINESAIDSRGGEPLLKLLPDIYGWPVATENWEQKYGASWTAEKAIAQLNSKYGKKVLINLFVGTDDKNSVNHVIHIDQPRLGLPSRDYYECTGIYKEACTAYVDFMISVARLIRQEERLPIDENQLALEMNKVMELEKEIANATAKPEDRNDPMLLYNKMTLAQIQNNFSLEINGKPFSWLNFTNEIMSTVNISITNEEDVVVYAPEYLTKLKPILTKYSARDLQNLMSWRFIMDLVSSLSRTYKESRNAFRKALYGTTSETATWRRCANYVNGNMENAVGRLYVEAAFAGESKHVVEDLIAQIREVFIQTLDDLTWMDAETKKRAEEKALAIKERIGYPDDIVSNDNKLNNEYLELNYKEDEYFENIIQNLKFSQSKQLKKLREKVDKDEWISGAAVVNAFYSSGRNQIVFPAGILQPPFFSAQQSNSLNYGGIGMVIGHEITHGFDDNGRNFNKDGDLVDWWTQQSASNFKEQSQCMVYQYGNFSWDLAGGQHLNGINTLGENIADNGGLGQAYRAYQNYIKKNGEEKLLPGLDLNHKQLFFLNFAQVWCGTYRPEYAVNSIKTDVHSPGNFRIIGTLQNSAEFSEAFHCRKNSYMNPEKKCRVW
kcat/Km (cleavage of conjugate, HPLC) (acetyl-P-L-G-Hof-Y-L-Dox): < 1e+06 M⁻¹ s⁻¹
kcat/Km (cleavage of conjugate, HPLC) (acetyl-P-L-G-L-Y-L-Dox): 2.2e+07 M⁻¹ s⁻¹
kcat/Km (cleavage of conjugate, HPLC) (acetyl-P-L-G-L-A-L-Dox): 4.9e+07 M⁻¹ s⁻¹
kcat/Km (cleavage of conjugate, HPLC) [1]: < 1e+06 M⁻¹ s⁻¹
kcat/Km (cleavage of conjugate, HPLC) (acetyl-G-P-L-G-L-Y-Dox): 1.9e+07 M⁻¹ s⁻¹
kcat/Km (cleavage of conjugate, HPLC) (acetyl-P-L-G-L-L-Dox): 2.2e+07 M⁻¹ s⁻¹
kcat/Km (cleavage of conjugate, HPLC) (acetyl-G-P-L-G-L-L-Dox): 2e+07 M⁻¹ s⁻¹
kcat/Km (cleavage of conjugate, HPLC) (acetyl-G-P-L-G-L-A-L-Dox): 4.2e+07 M⁻¹ s⁻¹
kcat/Km (cleavage of conjugate, HPLC) (acetyl-P-L-G-L-L-A-L-Dox): 1e+08 M⁻¹ s⁻¹
kcat/Km (cleavage of conjugate, HPLC) [2]: < 1e+06 M⁻¹ s⁻¹
kcat/Km (cleavage of conjugate, HPLC) (acetyl-P-L-G-L-Y-A-L-Dox): 3.88e+08 M⁻¹ s⁻¹
kcat/Km (cleavage of conjugate, HPLC) (acetyl-P-L-G-L-L-S-L-Dox): 8.2e+07 M⁻¹ s⁻¹
kcat/Km (cleavage of conjugate, HPLC) (acetyl-P-L-G-L-A-A-L-Dox): 1.2e+08 M⁻¹ s⁻¹

B2: MMP-2 (protein)
chain: YNFFPRKPKWDKNQITYRIIGYTPDLDPETVDDAFARAFQVWSDVTPLRFSRIHDGEADIMINFGRWEHGDGYPFDGKDGLLAHAFAPGTGVGGDSHFDDDELWTLGEGQVVRVKYGNADGEYCKFPFLFNGKEYNSCTDTGRSDGFLWCSTTYNFEKDGKYGFCPHEALFTMGGNAEGQPCKFPFRFQGTSYDSCTTEGRTDGYRWCGTTEDYDRDKKYGFCPETAMSTVGGNSEGAPCVFPFTFLGNKYESCTSAGRSDGKMWCATTANYDDDRKWGFCPDQGYSLFLVAAHEFGHAMGLEHSQDPGALMAPIYTYTKNFRLSQDDIKGIQELYGASPDIDLGTGPTPTLGPVTPEICKQDIVFDGIAQIRGEIFFFKDRFIWRTVTPRDKPMGPLLVATFWPELPEKIDAVYEAPQEEKAVFFAGNEYWIYSASTLERGYPKPLTSLGLPPDVQRVDAAFNWSKNKKTYIFAGDKFWRYNEVKKKMDPGFPKLIADAWNAIPDNLDAVVDLQGGGHSYFFKGAYYLKLENQSLKSVKFGSIKSDWLGC
kcat/Km (cleavage of conjugate, HPLC) (acetyl-P-L-G-Hof-Y-L-Dox): > 1.2e+08 M⁻¹ s⁻¹
kcat/Km (cleavage of conjugate, HPLC) (acetyl-P-L-G-L-Y-L-Dox): 8.8e+07 M⁻¹ s⁻¹
kcat/Km (cleavage of conjugate, HPLC) (acetyl-P-L-G-L-A-L-Dox): 5.3e+07 M⁻¹ s⁻¹
kcat/Km (cleavage of conjugate, HPLC) [1]: 1.36e+08 M⁻¹ s⁻¹
kcat/Km (cleavage of conjugate, HPLC) (acetyl-G-P-L-G-L-Y-Dox): 4e+07 M⁻¹ s⁻¹
kcat/Km (cleavage of conjugate, HPLC) (acetyl-P-L-G-L-L-Dox): 1.8e+07 M⁻¹ s⁻¹
kcat/Km (cleavage of conjugate, HPLC) (acetyl-G-P-L-G-L-L-Dox): 3e+07 M⁻¹ s⁻¹
kcat/Km (cleavage of conjugate, HPLC) (acetyl-G-P-L-G-L-A-L-Dox): 8.6e+07 M⁻¹ s⁻¹
kcat/Km (cleavage of conjugate, HPLC) (acetyl-P-L-G-L-L-A-L-Dox): 6.3e+07 M⁻¹ s⁻¹
kcat/Km (cleavage of conjugate, HPLC) [2]: > 1.2e+08 M⁻¹ s⁻¹
kcat/Km (cleavage of conjugate, HPLC) (acetyl-P-L-G-L-Y-A-L-Dox): 1.9e+08 M⁻¹ s⁻¹
kcat/Km (cleavage of conjugate, HPLC) (acetyl-P-L-G-L-L-S-L-Dox): 1.03e+08 M⁻¹ s⁻¹
kcat/Km (cleavage of conjugate, HPLC) (acetyl-P-L-G-L-A-A-L-Dox): 1.1e+08 M⁻¹ s⁻¹
